This passage reports stoichiometry N results from article PMC9081212.

The assay concerns the target wild-type human γS-crystallin (human) (UniProt P22914). Briefly: SEC-MALS. On the technique in general: Size exclusion chromatography separates by hydrodynamic size, large species first.

With “wild-type human γS-crystallin (from UniProt P22914 1-178) (natural protein)”, the stoichiometry N amounted to 2.

One may read the stoichiometry N as a count of units in the complex or per binding partner.
